Source: patent US20250382353A1 (LA JOLLA INSTITUTE FOR IMMUNOLOGY, published 2025)

B1: LJI_491-39 (2E6) (antibody, V domains shown)
VH: EVQLVQSGGGLVQPGGSLKLSCAASGFTFSGSAMHWVRQASGKGLEWVGHIRSKANSYATAYAASKGRFTISRDDSKNTAYLQMNSLKTEDTAVYYCTREDIVGVPVAKDWFDPWGQGTLVTVS
VL: DIQMTQSPSSLFASVGDRVTITCRASQSISSYLNWYQQKPGKAPKLLIYAASSLQSGVPSRFSGSGFGTDFTLTISSLQPEDFATYYCQQSYSTLSITFGQGTRLEIKR
B2: LJI_491-27 (1C3) (antibody, V domains shown)
VH: QVQLLESGGGLVQPGRSLRLSCAASGFTFDDYAMHWVRQPPGKGLEWVSGSSWNSGSVVYADSVKGRFTISRDSAKNSLHLQMNSLRVEDTALYYCAKAVDPTRGSYSPDYGFDIWGQGTMVTVS
VL: not shown

Tests used:
Assay in all cases: cell-based or functional assay
rVSV-G614 spike = rVSV-G614 spike (SARS-CoV-2, UniProt P0DTC2 14-1252)
rVSV-Delta spike = rVSV-Delta spike (SARS-CoV-2 Delta, UniProt P0DTC2 14-1252)
rVSV-Omicron spike = rVSV-Omicron spike (SARS-CoV-2 Omicron, UniProt P0DTC2 14-1252)

Binder	IC50 (ng/mL), neutralization of rVSV-G614 pseudovirions on Vero cells (rVSV-G614 spike)	IC50 (ng/mL), neutralization of rVSV-Delta pseudovirions on Vero cells (rVSV-Delta spike)	IC50 (ng/mL), neutralization of rVSV-Omicron pseudovirions on Vero cells (rVSV-Omicron spike)
B1	15 ng/mL	324 ng/mL	88 ng/mL
B2	8 ng/mL	12 ng/mL	3 ng/mL
